system: MCF10A; test: percent viability (nuclei count relative to siNT); higher = more viable cells; conditions: 20 nM; 72 h
Protocol: (§1)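 After 72 h, cells were fixed and stained with Hoechst and anti-fibrillarin, and nucleoli per nucleus were counted with CellProfiler. Values are plate-adjusted percent effect for the one-nucleolus and 5+ nucleoli phenotypes, normalised to siNT (0%) and to the positive controls siNOL11 or siKIF11 (100%), as the mean of biological triplicates. Percent viability is the nuclei count relative to siNT.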

Compared with “UCCAGUACCACGUGUCAGGGCCA [hsa-miR-770-5p]”, AUCUGCUCUCUUGUUCCCAG [hsa-miR-6828-3p] is lower in percent viability: 55.6% for the first, 43.4% for the second.

Compared with “UGUUGCAAGUCGGUGGAGACGU [hsa-miR-4684-3p]”, AGGAUUUCAGAAAUACUGGUGU [hsa-miR-3167] is higher in percent viability: 43.9% for the first, 49.1% for the second.

Compared with CGGGCGUGGUGGUGGGGGUG [hsa-miR-1268b], “UAGUGCAAUAUUGCUUAUAGGGU [hsa-miR-454-3p]” is higher in percent viability: 36.5% for the first, 121% for the second.

Compared with “GCAGUAGUGUAGAGAUUGGUUU [hsa-miR-3129-5p]”, “AGCAGCAUUGUACAGGGCUAUGA [hsa-miR-103a-3p]” is lower in percent viability: 40.7% for the first, 36.3% for the second.

First: CUCCUACAUAUUAGCAUUAACA [hsa-miR-155-3p]
Second: CAGGAAGGAGACAGGCAGUUCA [hsa-miR-6876-5p]
The percent viability of the first is higher: 119% for the first, 21.8% for the second.

First: ACAGAGGACAGUGGAGUGUGAGC [hsa-miR-6847-5p]
Second: AACGGGAAUGCAGGCUGUAUCU [hsa-miR-4681]
The percent viability of the first is higher: 51.1% for the first, 30.6% for the second.

Compared with AAGCUGCCAGUUGAAGAACUGU [hsa-miR-22-3p], “AGUGGGAGGCCAGGGCACGGCA [hsa-miR-1233-1-5p]” is lower in percent viability: 35.3% for the first, 26.5% for the second.

First: GAGACUGGGGUGGGGCC [hsa-miR-4463]
Second: AAAGUGCUUCCUUUUUGAGGG [hsa-miR-520e]
The percent viability of the first is lower: 64.8% for the first, 84.4% for the second.

First: AACUAGUAAUGUUGGAUUAGGG [hsa-miR-3923]
Second: UUUGGACAGAAAACACGCAGGU [hsa-miR-4520b-3p]
The percent viability of the first is lower: 21.9% for the first, 87% for the second.

Compared with UCUGGCUGUUGUGGUGUGCAA [hsa-miR-3064-5p], “CAAAGCGCUUCUCUUUAGAGUGU [hsa-miR-518c-3p]” is higher in percent viability: 17.8% for the first, 44.9% for the second.

First: UACGCGCAGACCACAGGAUGUC [hsa-miR-3939]
Second: UUUGGGAUUGACGCCACAUGUCU [hsa-miR-6513-5p]
The percent viability of the first is lower: 38.1% for the first, 72.6% for the second.

First: UAAUACUGCCGGGUAAUGAUGGA [hsa-miR-200c-3p]
Second: UGUCUUCUCUCCUCCCAAACAG [hsa-miR-6740-3p]
The percent viability of the first is higher: 104% for the first, 9.9% for the second.

Going from “CAAAAAUCUCAAUUACUUUUGC [hsa-miR-548c-3p]” to “UGGGGGAGCCAUGAGAUAAGAGCA [hsa-miR-4723-5p]”, the percent viability falls from 84.4% to 43.6%.

First: UGCCUCCCUGACAUUCCACAG [hsa-miR-6778-3p]
Second: CUUAUAUCAGAGGCUGUGGG [hsa-miR-6083]
The percent viability of the first is lower: 7.57% for the first, 40.8% for the second.

Compared with GUGAAAUGUUUAGGACCACUAG [hsa-miR-203a], UAUGUGCCUUUGGACUACAUCG [hsa-miR-455-5p] is higher in percent viability: 40.9% for the first, 44.7% for the second.

First: GUGAGGGCAUGCAGGCCUGGAUGGGG [hsa-miR-1226-5p]
Second: CAGUGCAAGUGUAGAUGCCGA [hsa-miR-3666]
The percent viability of the first is lower: 114% for the first, 150% for the second.

Going from UGGGCUGGCAGGGCAAGUGCUG [hsa-miR-4498] to AUUGACACUUCUGUGAGUAGA [hsa-miR-514a-3p], the percent viability rises from 9.7% to 56.9%.

Going from “GCUCUGACGAGGUUGCACUACU [hsa-miR-301b-5p]” to AAACCUGUGUUGUUCAAGAGUC [hsa-miR-649], the percent viability rises from 60.8% to 113%.

Compared with “UCAAGAGCAAUAACGAAAAAUGU [hsa-miR-335-5p]”, CUAUACAAUCUACUGUCUUUC [hsa-let-7a-3p] is higher in percent viability: 79.4% for the first, 93.9% for the second.

First: UAGAGGAAGCUGUGGAGAGA [hsa-miR-3125]
Second: AGGAGAAGUAAAGUAGAA [hsa-miR-4434]
The percent viability of the first is lower: 23.3% for the first, 74.7% for the second.

First: AUCGUGCAUCCUUUUAGAGUGU [hsa-miR-517c-3p]
Second: AGGUGUUAUCCUAUCCAUUUGC [hsa-miR-4694-5p]
The percent viability of the first is higher: 41.6% for the first, 25.3% for the second.

Compared with AUGGAGAUAGAUAUAGAAAU [hsa-miR-620], AGAGGAUACCCUUUGUAUGUU [hsa-miR-1185-5p] is lower in percent viability: 62.9% for the first, 34.2% for the second.

First: CAGAACAGGAGCAUAGAAAGGC [hsa-miR-4773]
Second: UCGAGGACUGGUGGAAGGGCCUU [hsa-miR-3131]
The percent viability of the first is lower: 43.7% for the first, 47.9% for the second.

Compared with “AAAAGUAAUUGCAGUUUUUGC [hsa-miR-548ar-5p]”, “CUCUCUACUGACUUGCAACAUA [hsa-miR-4684-5p]” is lower in percent viability: 134% for the first, 72.5% for the second.

Compared with CAUCCGUCCGUCUGUCCAC [hsa-miR-4800-3p], “AGCUGUCUGUGUUUUCCUUCUCAG [hsa-miR-6876-3p]” is lower in percent viability: 67.4% for the first, 58.5% for the second.

Compared with “AUGAAGCCUUCUCUGCCUUACG [hsa-miR-7843-3p]”, “CAAAACCGCGAUUACUCUUGCA [hsa-miR-548ay-3p]” is lower in percent viability: 37.8% for the first, 25.8% for the second.

Compared with GCUAAGGAAGUCCUGUGCUCAG [hsa-miR-4521], UCUGAGUUCCUGGAGCCUGGUCU [hsa-miR-4682] is higher in percent viability: 83.7% for the first, 104% for the second.

Compared with ACUGUUGCUAAUAUGCAACUCU [hsa-miR-367-5p], AAGUGUGCAGGGCACUGGU [hsa-miR-648] is lower in percent viability: 102% for the first, 20.9% for the second.

Going from AUGCUGACAUAUUUACUAGAGG [hsa-miR-628-5p] to “UUUUGCAUGACCCUGGGAGUAGG [hsa-miR-3680-3p]”, the percent viability falls from 107% to 51%.

UGGCGGCGGUAGUUAUGGGCUU [hsa-miR-4467] showed a percent viability of 30.8%.

system: MCF10A; test: 5+ nucleoli phenotype percent effect (relative to siNT 0% and siKIF11 100%); higher = more cells with five or more nucleoli; conditions: 20 nM; 72 h
Protocol: as §1

Going from “UCCAGUACCACGUGUCAGGGCCA [hsa-miR-770-5p]” to AUCUGCUCUCUUGUUCCCAG [hsa-miR-6828-3p], the “5+ nucleoli phenotype percent effect” value rises from -28.6% to 10.5%.

Compared with “UGUUGCAAGUCGGUGGAGACGU [hsa-miR-4684-3p]”, AGGAUUUCAGAAAUACUGGUGU [hsa-miR-3167] is lower in “5+ nucleoli phenotype percent effect” value: -9.23% for the first, -10.4% for the second.

First: CGGGCGUGGUGGUGGGGGUG [hsa-miR-1268b]
Second: UAGUGCAAUAUUGCUUAUAGGGU [hsa-miR-454-3p]
The “5+ nucleoli phenotype percent effect” value of the first is lower: 35.6% for the first, 54.6% for the second.

Going from “GCAGUAGUGUAGAGAUUGGUUU [hsa-miR-3129-5p]” to “AGCAGCAUUGUACAGGGCUAUGA [hsa-miR-103a-3p]”, the “5+ nucleoli phenotype percent effect” value falls from 12.6% to -29%.

Going from CUCCUACAUAUUAGCAUUAACA [hsa-miR-155-3p] to “CAGGAAGGAGACAGGCAGUUCA [hsa-miR-6876-5p]”, the “5+ nucleoli phenotype percent effect” value falls from 6.71% to -24.5%.

Compared with “ACAGAGGACAGUGGAGUGUGAGC [hsa-miR-6847-5p]”, AACGGGAAUGCAGGCUGUAUCU [hsa-miR-4681] is higher in “5+ nucleoli phenotype percent effect” value: -1.34% for the first, 46% for the second.

Going from AAGCUGCCAGUUGAAGAACUGU [hsa-miR-22-3p] to “AGUGGGAGGCCAGGGCACGGCA [hsa-miR-1233-1-5p]”, the “5+ nucleoli phenotype percent effect” value falls from 8.61% to -38.8%.

Going from GAGACUGGGGUGGGGCC [hsa-miR-4463] to AAAGUGCUUCCUUUUUGAGGG [hsa-miR-520e], the “5+ nucleoli phenotype percent effect” value rises from -7.37% to 57.7%.

First: AACUAGUAAUGUUGGAUUAGGG [hsa-miR-3923]
Second: UUUGGACAGAAAACACGCAGGU [hsa-miR-4520b-3p]
The “5+ nucleoli phenotype percent effect” value of the first is lower: -20.8% for the first, 50% for the second.

First: UCUGGCUGUUGUGGUGUGCAA [hsa-miR-3064-5p]
Second: CAAAGCGCUUCUCUUUAGAGUGU [hsa-miR-518c-3p]
The “5+ nucleoli phenotype percent effect” value of the first is higher: -22.7% for the first, -26.1% for the second.

Going from UACGCGCAGACCACAGGAUGUC [hsa-miR-3939] to “UUUGGGAUUGACGCCACAUGUCU [hsa-miR-6513-5p]”, the “5+ nucleoli phenotype percent effect” value rises from 11.7% to 91.1%.

Going from “UAAUACUGCCGGGUAAUGAUGGA [hsa-miR-200c-3p]” to “UGUCUUCUCUCCUCCCAAACAG [hsa-miR-6740-3p]”, the “5+ nucleoli phenotype percent effect” value falls from 62.3% to -27.6%.

First: CAAAAAUCUCAAUUACUUUUGC [hsa-miR-548c-3p]
Second: UGGGGGAGCCAUGAGAUAAGAGCA [hsa-miR-4723-5p]
The “5+ nucleoli phenotype percent effect” value of the first is higher: 42.3% for the first, 2.14% for the second.

First: UGCCUCCCUGACAUUCCACAG [hsa-miR-6778-3p]
Second: CUUAUAUCAGAGGCUGUGGG [hsa-miR-6083]
The “5+ nucleoli phenotype percent effect” value of the first is higher: -21% for the first, -34.4% for the second.

With GUGAAAUGUUUAGGACCACUAG [hsa-miR-203a] the “5+ nucleoli phenotype percent effect” value was 3.03%.
